Results from US8629107B2, “Genes and proteins associated with angiogenesis and uses thereof” (National Jewish Health, priority 2005, dated 2014).

Columns and labels:
Format in all cases: cell-based, murine
[1] = test system: Hes1 promoter (Notch1 signaling); experiment: Hes1-driven luciferase reporter gene assay in MB114 cells; conditions: MB114 cells treated overnight with 10 μM
Protocol: (§1) The effect putative angiogenic agents had on MB114 cell activities were determined as follows: (i) cell proliferation using a [^3H]thymidine incorporation assay as described (Albig et al, 2006; Albig and Schiemann, 2004; Albig and Schiemann, 2005); (ii) cell invasion through Matrigel matrices using a modified Boyden-chamber assay as described (Albig et al, 2006; Albig and Schiemann, 2004; Albig and Schiemann, 2005); (iii) p38 MAPK phosphorylation using immunoblot analyses as described (Albig et al, 2006; Albig and Schiemann, 2004; Albig and Schiemann, 2005); (iv) angiogenic sprouting in rat tail collagen matrices as described (Albig et al, 2006; Albig and Schiemann, 2004); and (v) Hes1- and SBE-driven luciferase reporter gene assays as described (Albig et al, 2006; Albig and Schiemann, 2004; Albig and Schiemann, 2005).
MAGP-2 can interact physically with Notch1 and its ligand, Jagged-1 (Miyamoto et al, 2006; Nehring et al, 2005), resulting in the ectodomain shedding of both molecules from the cell surface. Notch signaling also plays an essential role in regulating normal vessel development and angiogenesis in mammals (Leong and Karsan, 2005; Shawber and Kitajewski, 2004). Given these two facts, the inventors hypothesized that MAGP-2 promotes angiogenesis by modulating Notch1 signaling. To test this hypothesis, first measured were changes in luciferase expression driven by a Hes1-luciferase reporter gene whose expression is induced by Notch1 activation (Iso et al, 2003). MB114 and HUVEC cells were transiently transfected either with pHes1-luciferase, pCMV-β-gal, and MAGP-2 cDNAs, or with pHes1-luciferase and pCMV-β-gal cDNAs and subsequently stimulated with rMAGP-2 (1 or 5 mg/ml). Afterward, luciferase and β-gal activities contained in detergent-solubilized cell extracts were measured. In addition, GFP- and MAGP-2-expressing MB114 cells were transiently transfected with pHes1-luciferase and pCMV-β-gal cDNAs, together with or without Jagged-1 cDNA as indicated. Afterward, luciferase and β-gal activities were measured as above.
To further investigate the impact of MAGP-2 on Notch1 processing and NICD accumulation, the inventors took advantage of recent findings showing that the ability of TGF-β to induce Hes1 promoter activity requires Smad3 to interact physically with NICD (Blokzijl et al, 2003), a reaction that is dispensable for canonical Smad3-mediated signaling stimulated by TGF-β (Blokzijl et al, 2003). It was therefore reasoned that the ability of MAGP-2 to inhibit NICD production in ECs would reduce the capacity of TGF-β to induce luciferase expression driven by the Hes1 promoter, but not that driven by the synthetic Smad2/3-binding element (SBE). GFP- and MAGP-2-expressing MB114 cells were transiently transfected with either pHes1- or pSBE-luciferase, both together with pCMV-β-gal as indicated in FIG. 4B. Afterward, the resulting transfectants were stimulated overnight with increasing concentrations of TGF-β1 (0-5 ng/ml).
Based on the findings described in the Examples above, the inventors hypothesized that MAGP-2 promotes angiogenesis by antagonizing Notch1 signaling. To test this hypothesis, it was first determined whether inhibiting Notch signaling in MB114 cells would enhance their angiogenic sprouting. […] Afterward, luciferase and β-gal activities were determined. […]

MB114 cells [2] = experiment: angiogenic sprouting in rat tail collagen matrices; conditions: 5 days; for angiogenic sprouting of quiescent MB114 cell monolayers: MB114 cells stably expressing the transgene vs GFP, 10% FBS
Protocol: as §1
Finally, it was determined whether expression of these putative angiogenic factors could effect the angiogenic sprouting of quiescent MB114 cells monolayers. MB114 cells expressing either GFP or various putative angiogenic agents were grown to confluency, and subsequently were overlaid with rat tail collagen matrices. Angiogenic sprouting by quiescent EC monolayers was stimulated by inclusion of 10% FBS and allowed to proceed for 5 days. The quantity of invading angiogenic sprouts was determined by manual counting under a light microscope.
Based on the findings described in the Examples above, the inventors hypothesized that MAGP-2 promotes angiogenesis by antagonizing Notch1 signaling. To test this hypothesis, it was first determined whether inhibiting Notch signaling in MB114 cells would enhance their angiogenic sprouting. In doing so, MB114 cells were transiently transfected with the Hes1-luciferase reporter gene (and pCMV-β-gal cDNA as control), and subsequently were treated overnight with or without the highly specific gamma-secretase inhibitor, DAPT (Sastre et al, 2001), which inhibits S3-mediated cleavage of Notch1 and, consequently, NICD-mediated induction of Hes1 expression. Afterward, luciferase and β-gal activities were determined. […] In this experiment, quiescent MB114 cell monolayers were overlaid with rat tail collagen matrices, and were induced to form angiogenic sprouts by addition of 10% FBS supplemented with or without DAPT (10 μM). Five days later the number of invading angiogenic spouts were quantified by manual counting on a light microscope. Based on these findings, the inventors conclude that Notch activation functions in mediating angiostasis in MB114 cells. […] Collectively, these findings indicate that Notch1 signaling antagonizes angiogenic sprouting in MB114 cells, and that downregulation of Notch1 signaling components is necessary for angiogenesis activation in MB114 cells.
Having shown that Notch1 signaling mediates angiostasis in MB114 cells, the inventors next asked whether MAGP-2 promotes angiogenesis in MB114 cells via its ability to antagonize Notch signaling. To do so, MAGP-2-expressing MB114 cells were engineered to constitutively express active Notch1 NICD fragment in an attempt to overcome the block of Notch processing mediated by MAGP-2. More particularly, GFP-, MAGP-2-, and MAGP-2/N1ICD-expressing MB114 cells were transiently transfected with pHes1-luciferase and pCMV-β-gal cDNAs. Luciferase and β-gal activities were determined 48 h post-transfection. As the inventors observed previously, MAGP-2 expression reduced Hes1-luciferase activity in MB114 cells (FIG. 5C), a reaction that was bypassed by co-expression of NICD in these cells (FIG. 5C). […] In this experiment, quiescent monolayers of GFP-, MAGP-2-, and MAGP-2/N1ICD-expressing MB114 cells were overlaid with rat tail collagen matrices and incubated in the absence or presence of 10% FBS for 5 days. Afterward, the number of invading angiogenic sprouts were determined by manual counting under a light microscope.

MB114 cells [3] = experiment: cell proliferation, [3H]thymidine incorporation assay; conditions: serum-starved MB114 cells stably expressing the transgene vs GFP; EGF 10 ng/ml, 24 h, 37° C.
Protocol: as §1
(§2) FIG. 1A show results from an experiment in which serum-starved MB114 cells, stably expressing either GFP or various putative angiogenic agents, were stimulated in the absence or presence of either bFGF (50 ng/ml) or EGF (10 ng/ml) for 24 h at 37° C. Differences in MB114 cell DNA synthesis was determined by measuring [^3H]thymidine incorporation into cellular DNA. […] In this experiment, invasion of MB114 cells expressing either GFP or various putative angiogenic agents through synthetic basement membranes was determined over 48 h using a modified Boyden-chamber assay.

MB114 cells [4] = experiment: cell invasion through Matrigel matrices, modified Boyden-chamber assay; conditions: MB114 cells stably expressing the transgene vs GFP; 48 h
Protocol: as §1, §2

Molecule: C[C@H](NC(=O)Cc1cc(F)cc(F)c1)C(=O)N[C@H](C(=O)OC(C)(C)C)c1ccccc1 [DAPT, reference compound]
- Hes1 promoter activity (Hes1-luciferase) [1]: significantly inhibited
- number of invading angiogenic sprouts (MB114 cells [2]; MB114 monolayers, 10% FBS with 10 μM compound vs untreated): significantly more

B1: AK002276: putative transmembrane protein stably expressed in MB114 cells by retroviral transduction (protein, listed as Mus musculus)
chain: MASRESGGSRAAALLLVLGVERSLALPKICTLCPGGMHNLSRVAAYCEDTSKLMQARCCLNQKGPILGLNLQNCSLKDPGPNFLQAYTAIIIDLQANPLKDDLANTFRGFTQLQTLILPQDVPCPGGSNAWDNVTSFKDKQICQGQRDLCNSTGSPEMCPENGSCASDGPGLLQCVCADGFHGYKCMRQGSFSLLMFFGILGSTTLAISILLWGTQRRKAKAS
- proliferative response of MB114 cells to EGF ([3H]thymidine incorporation into cellular DNA) (MB114 cells [3]): significantly enhanced
- angiogenic sprouting of quiescent MB114 cell monolayers (MB114 cells [2]): failed to significantly affect

B2: CRELD-2: secretory protein stably expressed in MB114 cells by retroviral transduction (protein, UniProt Q9CYA0 23-350, looked up)
Protein disulfide isomerase …: SRKPTMCQRCRTLVDKFNQGMANTARKNFGGGNTAWEEKTLSKYEFSEIRLLEIMEGLCDSSDFECNQLLEQQEEQLEAWWQTLKKEHPNLFEWFCVHTLKACCLPGTYGPDCQECQGGSERPCSGNGYCSGDGSRQGDGSCQCHTGYKGPLCIDCTDGFFSLQRNETHSICSACDESCKTCSGPSNKDCIQCEVGWARVEDACVDVDECAAETSPCSDGQYCENVNGSYTCEDCDSTCVGCTGKGPANCKECIAGYTKESGQCTDIDECSLEEKACKRKNENCYNVPGSFVCVCPEGFEETEDACVQTAEGKVTEENPTQPPSREDL
- MB114 cell invasion through synthetic basement membranes (MB114 cells [4]): significantly induced
- angiogenic sprouting of quiescent MB114 cell monolayers (MB114 cells [2]): failed to significantly affect

B3: matrillin-2: secretory protein stably expressed in MB114 cells by retroviral transduction (protein, UniProt O08746 24-956, looked up)
Matrilin-2: RERPQARFPSRGRHVRMYPQTALLESSCENKRADLVFIIDSSRSVNTYDYAKVKEFILDILQFLDIGPDVTRVGLLQYGSTVKNEFSLKTFKRKSEVERAVKRMRHLSTGTMTGLAIQYALNIAFSEAEGARPLRENVPRIIMIVTDGRPQDSVAEVAAKARNTGILIFAIGVGQVDLNTLKAIGSEPHKDHVFLVANFSQIESLTSVFQNKLCTVHMCSVLEHNCAHFCLNTPGSYICKCKQGYILSTDQKTCRIQDLCATEDHGCEQLCVNMLGSFVCQCYSGYTLAEDGKRCTAVDYCASENHGCEHECVNAESSYLCRCHEGFALNSDKKTCSKIDYCASSNHGCQHECVNAQTSALCRCLKGFMLNPDRKTCRRINYCALNKPGCEHECVNTEEGHYCRCRQGYNLDPNGKTCSRVDHCAQQDHGCEQLCLNTEESFVCQCSEGFLINDDLKTCSRADYCLLSNHGCEYSCVNTDKSFACQCPEGHVLRSDGKTCAKLDSCALGDHGCEHSCVSSEDSFVCQCFEGYILRDDGKTCRRKDVCQDVNHGCEHLCVNSGESYVCKCLEGFRLAEDGKRCRRKNVCKSTQHGCEHMCVNNGNSYLCRCSEGFVLAEDGKHCKRCTEGPIDLVFVIDGSKSLGEENFETVKHFVTGIIDSLAVSPKAARVGLLQYSTQVRTEFTLRGFSSAKEMKKAVTHMKYMGKGSMTGLALKHMFERSFTQVEGARPPSTQVPRVAIVFTDGRAQDDVSEWASKAKANGITMYAVGVGKAIEEELQEIASEPIDKHLFYAEDFSTMGEISEKLKEGICEALEDSGGRQDSAAWDLPQQAHQPTEPEPVTIKIKDLLSCSNFAVQHRFLFEEDNLSRSTQKLFHSTKSSGNPLEESQDQCKCENLILFQNVANEEVRKLTQRLEEMTQRMEALENRLKYR
- angiogenic sprouting of quiescent MB114 cell monolayers (MB114 cells [2]): failed to significantly affect

B4: ECM-1: secretory glycoprotein stably expressed in MB114 cells by retroviral transduction (protein, UniProt Q61508 20-559, looked up)
Extracellular matrix protein 1: ASEGAFKASDQREMTPERLFQHLHEVGYAAPPSPPQTRRLRVDHSVTSLHDPPLFEEQREVQPPSSPEDIPVYEEDWPTFLNPNVDKAGPAVPQEAIPLQKEQPPPQVHIEQKEIDPPAQPQEEIVQKEVKPHTLAGQLPPEPRTWNPARHCQQGRRGVWGHRLDGFPPGRPSPDNLKQICLPERQHVIYGPWNLPQTGYSHLSRQGETLNVLETGYSRCCRCRSDTNRLDCLKLVWEDAMTQFCEAEFSVKTRPHLCCRLRGEERFSCFQKEAPRPDYLLRPCPVHQNGMSSGPQLPFPPGLPTPDNVKNICLLRRFRAVPRNLPATDAIQRQLQALTRLETEFQRCCRQGHNHTCTWKAWEGTLDGYCERELAIKTHPHSCCHYPPSPARDECFAHLAPYPNYDRDILTLDLSRVTPNLMGQLCGSGRVLSKHKQIPGLIQNMTIRCCELPYPEQACCGEEEKLAFIENLCGPRRNSWKDPALCCDLSPEDKQINCFNTNYLRNVALVAGDTGNATGLGEQGPTRGTDANPAPGSKEE
- angiogenic sprouting of quiescent MB114 cell monolayers (MB114 cells [2]): significantly decreased
